{
  "source": "paper PMC9738581",
  "about": "“Dissection of Functional Domains of Orc1-2, the Archaeal Global DNA Damage-Responsive Regulator”",
  "binders": {"B1": {"name": "PupsE (dsDNA)", "DNA 1": "CTATAAAGGAAGTTTTAAGTAATTTCGGTATTGTGTGAGTATATTT", "DNA 2": "AAATATACTCACACAATACCGAAATTACTTAAAACTTCCTTTATAG"}, "B2": {"name": "Porc1-2 (dsDNA)", "DNA 1": "TTTGAGAAAGAATCAAGAAAAGTTTCGGACTACTCTCTTAGATAAA", "DNA 2": "TTTATCTAAGAGAGTAGTCCGAAACTTTTCTTGATTCTTTCTCAAA"}},
  "details_in_all_cases": "protein: recombinant; tags: His; label: 5'-32P; blunt",
  "key": {"Orc1-2 WB": {"biological_target": "T1, Orc1-2 WB (Saccharolobus islandicus REY15A, UniProt F0NF18 1-413, E154A)", "T1 sequence": "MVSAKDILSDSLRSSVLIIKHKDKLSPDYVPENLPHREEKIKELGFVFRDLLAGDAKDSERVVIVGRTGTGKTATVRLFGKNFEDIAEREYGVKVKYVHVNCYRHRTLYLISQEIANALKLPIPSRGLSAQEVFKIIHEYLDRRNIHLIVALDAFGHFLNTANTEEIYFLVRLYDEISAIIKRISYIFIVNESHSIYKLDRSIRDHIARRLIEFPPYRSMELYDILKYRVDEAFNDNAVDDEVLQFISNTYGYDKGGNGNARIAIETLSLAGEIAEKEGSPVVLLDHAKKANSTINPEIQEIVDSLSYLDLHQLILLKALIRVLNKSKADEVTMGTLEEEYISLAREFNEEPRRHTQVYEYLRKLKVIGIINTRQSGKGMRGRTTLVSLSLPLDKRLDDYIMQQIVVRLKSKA", "assay": "EMSA; similar or stronger than WT; EMSA: 20 mM HEPES pH 7.6, 10 mM (NH4)2SO4, 1 mM DTT, 0.2% Tween-20, 30 mM KCl, 40 °C 20 min, 2 nM probe; 8% native PAGE in 40 mM Tris, 20 mM boric acid"}, "Orc1-2 ΔN": {"biological_target": "T2, Orc1-2 ΔN (Saccharolobus islandicus REY15A, UniProt F0NF18 299-413)", "T2 sequence": "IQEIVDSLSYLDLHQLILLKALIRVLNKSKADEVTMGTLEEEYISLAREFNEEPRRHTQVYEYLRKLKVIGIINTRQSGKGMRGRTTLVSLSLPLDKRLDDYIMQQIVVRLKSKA", "assay": "EMSA; large complexes, distributive; two distinct complexes at lowest protein concentration; EMSA: 20 mM HEPES pH 7.6, 10 mM (NH4)2SO4, 1 mM DTT, 0.2% Tween-20, 30 mM KCl, 40 °C 20 min, 2 nM probe; 8% native PAGE in 40 mM Tris, 20 mM boric acid"}, "Orc1-2 ΔC": {"biological_target": "T3, Orc1-2 ΔC (Saccharolobus islandicus REY15A, UniProt F0NF18 1-298)", "T3 sequence": "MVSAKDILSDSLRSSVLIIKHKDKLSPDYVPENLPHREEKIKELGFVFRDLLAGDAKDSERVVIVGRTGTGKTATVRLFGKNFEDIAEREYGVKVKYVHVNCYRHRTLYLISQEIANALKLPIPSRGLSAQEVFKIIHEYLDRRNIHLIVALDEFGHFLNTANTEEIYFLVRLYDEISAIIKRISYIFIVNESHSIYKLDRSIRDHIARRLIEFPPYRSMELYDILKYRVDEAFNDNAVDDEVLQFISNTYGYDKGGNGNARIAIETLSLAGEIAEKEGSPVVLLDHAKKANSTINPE", "assay": "EMSA; EMSA: 20 mM HEPES pH 7.6, 10 mM (NH4)2SO4, 1 mM DTT, 0.2% Tween-20, 30 mM KCl, 40 °C 20 min, 2 nM probe; 8% native PAGE in 40 mM Tris, 20 mM boric acid"}, "Orc1-2 wH": {"biological_target": "T4, Orc1-2 wH (Saccharolobus islandicus REY15A, UniProt F0NF18 1-413, R353A;R354A;R381A;R383A)", "T4 sequence": "T1 sequence with A154E, R353A, R354A, R381A, R383A", "assay": "EMSA; EMSA: 20 mM HEPES pH 7.6, 10 mM (NH4)2SO4, 1 mM DTT, 0.2% Tween-20, 30 mM KCl, 40 °C 20 min, 2 nM probe; 8% native PAGE in 40 mM Tris, 20 mM boric acid"}, "Orc1-2 WT [1]": {"biological_target": "T5, Orc1-2 WT (Saccharolobus islandicus REY15A, UniProt F0NF18 1-413)", "T5 sequence": "T1 sequence with A154E", "assay": "EMSA; EMSA: 20 mM HEPES pH 7.6, 10 mM (NH4)2SO4, 1 mM DTT, 0.2% Tween-20, 30 mM KCl, 40 °C 20 min, 2 nM probe; 8% native PAGE in 40 mM Tris, 20 mM boric acid"}, "Orc1-2 WT [2]": {"biological_target": "T5, Orc1-2 WT", "assay": "EMSA; 25 nM protein, unlabeled specific competitor; affinity very similar to PupsE; EMSA: 20 mM HEPES pH 7.6, 10 mM (NH4)2SO4, 1 mM DTT, 0.2% Tween-20, 30 mM KCl, 40 °C 20 min, 2 nM probe; 8% native PAGE in 40 mM Tris, 20 mM boric acid"}},
  "note": "Positions count from the first letter of the chain named.",
  "data": [
    {"binder": "B1", "values": [
      {"measurement": "binding result", "setting": "Orc1-2 WB", "result": "binds"},
      {"measurement": "binding result", "setting": "Orc1-2 ΔN", "result": "binds"},
      {"measurement": "binding result", "setting": "Orc1-2 ΔC", "result": "no binding"},
      {"measurement": "binding result", "setting": "Orc1-2 wH", "result": "no binding"},
      {"measurement": "binding result", "setting": "Orc1-2 WT [1]", "result": "binds"}
    ]},
    {"binder": "B2", "values": [
      {"measurement": "binding result", "setting": "Orc1-2 WT [2]", "result": "binds"}
    ]}
  ]
}
